Values quoted from earlier work in article PMC5576018.
pKd: −log10 of the molar value.

Biological target: CSL (Homo sapiens) (UniProt Q06330)
UniProt Q06330, sequence (Q06330 whole entry): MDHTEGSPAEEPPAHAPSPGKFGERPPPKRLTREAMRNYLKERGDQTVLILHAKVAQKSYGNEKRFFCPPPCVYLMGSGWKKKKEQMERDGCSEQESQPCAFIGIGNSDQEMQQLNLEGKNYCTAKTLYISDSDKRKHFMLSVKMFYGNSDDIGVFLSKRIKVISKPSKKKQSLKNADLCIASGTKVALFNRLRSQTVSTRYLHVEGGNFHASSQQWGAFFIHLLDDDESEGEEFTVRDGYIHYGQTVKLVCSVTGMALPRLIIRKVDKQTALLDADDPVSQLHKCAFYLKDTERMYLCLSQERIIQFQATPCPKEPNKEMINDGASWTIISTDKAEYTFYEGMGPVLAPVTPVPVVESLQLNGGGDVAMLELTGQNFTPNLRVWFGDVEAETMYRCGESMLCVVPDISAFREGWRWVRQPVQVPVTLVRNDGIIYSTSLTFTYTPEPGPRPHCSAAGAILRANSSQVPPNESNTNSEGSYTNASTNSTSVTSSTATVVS

In the case of Notch RAM RAM (from UniProt P46531), the pKd is given as 7.66.
